Results reported in US20200002406A1 (Janssen / Centocor, published 2020).

B1: CR14017 (antibody, V domains shown)
VH: EVQLVETGGGVVQPGRSLRLSCAASGFTFNTHAMHWVRQAPGKGLEWLAVISYDGNIKYYADSVKGRFTISRDSSKNTLYLLMNSLRAEDTAIYYCARDRGDYNYLPSDYWGQGTLVTVSS
VL: not shown
notes: also called sc14-017; anti-NA IgG
B2: CR14012 (antibody, V domains shown)
VH: QVQLQESGGGVVQPGRSLRLSCAASGFSFSTYGMHWVRQAPGKGLEWVAVISYDGSNKYYADSVKGRFTISRDNAKNTLYLQMNSLRAEDTAVYYCGRDSGYTTNWYPGGYWGQGTLVTVSS
VL: not shown
notes: also called sc14-012; anti-NA IgG
B3: CR14011 (antibody, V domains shown)
VH: EVQLVETGGGVVQPGRSLRLSCSVSGFSFTTYAMHWVRQAPGKGLEWVAIISDDATKKYYADSVKGRFTISRDNSRNTLILQMNSLRAEDTGVYYCAKDGDPGYDSRYYYYYGMDVWGQGTTVTVSS
VL: SYVLTQPPSVSVAPGKTARITCGGNNIGSKSVHWYQQKPGQAPVLVIYYDSDRPSGIPERFSGSNSGNTATLTISRVEAGDEADYYCQVWDSSSDHPVFGGGTKLTVL
notes: also called sc14-011; anti-NA IgG

Experiments:
[1] = target: human FcγRIIIa receptor (FcγRIIIa V158) (human, UniProt P08637 17-254); experiment: cell-based or functional assay
[2] = target: T1, neuraminidase (NA) of influenza A virus H5N1 A/Hong Kong/156/97 (Influenza A virus A/Hong Kong/156/97 …, UniProt Q9W7Y7 1-450); experiment: flow cytometry on 293-F cells transfected with NA
T1 construct: also called A/Hong Kong/156/97 (H5N1); NA of influenza virus A N1 subtype

[3] = target: T2, neuraminidase (NA) of influenza B virus B/Malaysia/2506/2004 (Victoria lineage) (Influenza B virus B/Malaysia/2506/2004); experiment: cell-based or functional assay
[4] = target: neuraminidase (NA) of influenza A virus H1N1 strain A/New Caledonia/20/1999 (Influenza A virus A/New …); experiment: cell-based or functional assay
[5] = target: neuraminidase (NA) of influenza A virus H3N2 strain A/Perth/16/2009 (Influenza A virus A/Perth/16/2009 (H3N2)); experiment: cell-based or functional assay
[6] = target: T3, neuraminidase (NA) of influenza B virus B/Florida/04/2006 (Yamagata lineage) (Influenza B virus B/Florida/04/2006); experiment: cell-based or functional assay
[7] = target: T2, neuraminidase (NA) of influenza B virus …; experiment: cell-based or functional assay; remark: listed apart in the source
[8] = target: T3, neuraminidase (NA) of influenza B virus …; experiment: cell-based or functional assay; remark: listed apart in the source

T1 sequence (Q9W7Y7 whole entry): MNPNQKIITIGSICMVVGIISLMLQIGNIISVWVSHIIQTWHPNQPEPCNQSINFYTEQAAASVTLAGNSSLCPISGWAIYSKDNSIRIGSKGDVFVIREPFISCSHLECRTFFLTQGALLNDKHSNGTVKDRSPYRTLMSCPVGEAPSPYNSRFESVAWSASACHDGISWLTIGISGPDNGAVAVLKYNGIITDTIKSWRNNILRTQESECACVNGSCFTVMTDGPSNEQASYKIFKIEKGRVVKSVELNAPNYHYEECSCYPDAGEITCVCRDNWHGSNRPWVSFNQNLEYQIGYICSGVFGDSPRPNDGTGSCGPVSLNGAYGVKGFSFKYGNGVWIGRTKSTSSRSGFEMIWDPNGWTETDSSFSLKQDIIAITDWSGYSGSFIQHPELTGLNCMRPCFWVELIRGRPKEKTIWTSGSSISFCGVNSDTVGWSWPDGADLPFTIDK
Chain of human FcγRIIIa receptor (FcγRIIIa V158) (P08637 17-254 F176V limits assumed): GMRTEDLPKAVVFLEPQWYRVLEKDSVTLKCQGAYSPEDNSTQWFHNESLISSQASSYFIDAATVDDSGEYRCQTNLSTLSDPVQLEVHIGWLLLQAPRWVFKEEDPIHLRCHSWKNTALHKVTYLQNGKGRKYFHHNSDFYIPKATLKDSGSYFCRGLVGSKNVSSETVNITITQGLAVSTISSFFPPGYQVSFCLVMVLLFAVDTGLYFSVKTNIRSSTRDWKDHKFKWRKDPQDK

Binder | ADCC Reporter Bioassay EC50; A549 target cells infected with B/Lee/1940 [1] | MFI [2] | Neuraminidase inhibition activity, EC50 (NA-XTD assay, whole virus) [3] | Neuraminidase inhibition activity, EC50 (NA-XTD assay, whole virus) [4] | Neuraminidase inhibition activity, EC50 (NA-XTD assay, whole virus) [5] | Neuraminidase inhibition activity, EC50 (NA-XTD assay, whole virus) [6] | Virus neutralization assay (VNA) on MDCK-SIAT1 cells, IC50 [7] | Virus neutralization assay (VNA) on MDCK-SIAT1 cells, IC50 [8]
B1 | 0.08 µg/mL | < 250 mfi | – | – | – | – | – | –
B2 | – | < 250 mfi | – | – | – | – | – | –
B3 | – | < 250 mfi | 0.013 µg/mL | > 50 µg/mL | > 50 µg/mL | 0.004 µg/mL | 1.19 µg/mL | 2.21 µg/mL
